Values quoted from earlier work as cited in PMC4659487.

Target: MurC (Escherichia coli) (UniProt P17952)

Question: Which Kd does the source give for MurC (from UniProt P17952) here?
Answer: The Kd was 1 µM.
